For data set [1], the system named is RBD of SARS-CoV-2 Delta strain.
Data set [2] relates to RBD of SARS-CoV-2 Omicron strain B.1.1.529, BA1, on infectious virus.
The test system of data set [3] is RBD of SARS-CoV-2 Omicron strain.
The test system of data set [4] is RBD of SARS-CoV-2 Delta strain B.1.617.2, on infectious virus.

We go through 1 substance from patent publication US20260248897.

On to “gene recombinant of human PDI (protein disulfide isomerase)”, for which the “disulfide bond cleavage activity (remaining rate of native RBD; maleimide-PEG 2k, SDS-PAGE)” value in data set [1] is “PDI showed an activity to cleave disulfide bonds in both the RBD of the Delta strain and the RBD of the Omicron strain”; in data set [3] it was “PDI showed an activity to cleave disulfide bonds in both the RBD of the Delta strain and the RBD of the Omicron strain. The disulfide bond cleavage activity was particularly high in the RBD of the Omicron strain”. For the same substance, the “antiviral activity (viral genome amount in supernatant of infected airway organoids)” value in data set [2] is “PDI showed the high antiviral activity against both the Delta strain and the Omicron strain”; in data set [4], “PDI showed the high antiviral activity against both the Delta strain and the Omicron strain”.
